T1: gp130/CNTF-Rα/CNTF ternary complex (human, UniProt P26441 1-200; P40189 23-619)
T1 chain 1: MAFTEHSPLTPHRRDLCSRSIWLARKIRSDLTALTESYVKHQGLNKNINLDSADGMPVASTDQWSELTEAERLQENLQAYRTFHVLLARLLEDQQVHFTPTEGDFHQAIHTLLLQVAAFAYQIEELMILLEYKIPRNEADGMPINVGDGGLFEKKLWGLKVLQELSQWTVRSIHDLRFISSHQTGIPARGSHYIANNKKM
T1 chain 2: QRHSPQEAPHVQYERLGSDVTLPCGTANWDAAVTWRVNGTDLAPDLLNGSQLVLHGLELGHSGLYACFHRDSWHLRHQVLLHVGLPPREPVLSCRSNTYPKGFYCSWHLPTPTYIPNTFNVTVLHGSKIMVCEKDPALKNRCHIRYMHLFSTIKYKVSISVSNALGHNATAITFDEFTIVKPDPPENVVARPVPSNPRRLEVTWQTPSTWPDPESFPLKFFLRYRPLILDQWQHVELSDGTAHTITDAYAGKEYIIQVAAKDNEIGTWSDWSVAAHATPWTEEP
T1 chain 3: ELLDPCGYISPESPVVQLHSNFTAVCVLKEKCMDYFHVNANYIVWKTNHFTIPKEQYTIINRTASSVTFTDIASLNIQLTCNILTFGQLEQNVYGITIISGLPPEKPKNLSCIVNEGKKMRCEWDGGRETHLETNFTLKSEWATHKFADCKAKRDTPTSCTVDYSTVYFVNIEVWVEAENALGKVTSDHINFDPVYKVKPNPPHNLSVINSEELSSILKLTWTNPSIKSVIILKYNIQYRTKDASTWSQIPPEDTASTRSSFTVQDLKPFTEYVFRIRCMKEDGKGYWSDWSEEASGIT

B1: Ciliary Neurotrophic Factor (CNTF) (ligand, human, UniProt P26441 1-200, looked up)
chain: T1 chain 1
B2: Leukemia Inhibitory Factor Receptor LIF-R (D1-D5) (domain or fragment, human)
chain: DLKCVTNNLQVWNCSWKAPSGTGRGTDYEVCIENRSRSCYQLEKTSIKIPALSHGDYEITINSLHDFGSSTSKFTLNEQNVSLIPDTPEILNLSADFSTSTLYLKWNDRGSVFPHRSNVIWEIKVLRKESMELVKLVTHNTTLNGKDTLHHWSWASDMPLECAIHFVEIRCYIDNLHFSGLEEWSDWSPVKNISWIPDSQTKVFPQDKVILVGSDITFCCVSQEKVLSALIGHTNCPLIHLDGENVAIKIRNISVSASSGTNVVFTTEDNIFGTVIFAGYPPDTPQQLNCETHDLKEIICSWNPGRVTALVGPRATSYTLVESFSGKYVRLKRAEAPTNESYQLLFQMLPNQEIYNFTLNAHNPLGRSQSTILVNITEKVYPHTPTSFKVKDINSTAVKLSWHLPGNFAKINFLCEIEIKKSNSVQEQRNVTIKGVENSSYLVALDKLNPYTLYTFRIRCSTETFWKWSKWSNKKQHLTTEAS

Experiments:
[1] = target: B2; test: ITC
[2] = target: T1, gp130/CNTF-Rα/CNTF ternary complex; test: ITC

binding result [1]	stoichiometry N [2]	Binder
binds	–	B1
–	1	B2
